Tests used:
[1] = target: T1, KHS1 activation loop peptide # 4, KRKSFIGTPYWMAPE, aa 171-185 (not fully specified)
T1 chain: KRKSFIGTPYWMAPE

[2] = target: T2, PAK5 activation loop peptide # 1, (C)RRKSLVGTPYWMAPE, aa 471-485
T2 chain: CRRKSLVGTPYWMAPE

[3] = target: T3, PAK5 activation loop peptide # 2, (C)RRKSLVGTPYWMAPE, aa 471-485
T3 chain: CRRKSLVGTPYWMAPE

[4] = target: T4, PAK5 activation loop peptide # 3, (C)RRKSLVGTPYWMAPE, aa 471-485 (not fully specified)
T4 chain: CRRKSLVGTPYWMAPE

[5] = target: T5, STLK2 activation loop peptide # 5, KRNTFVGTPFWMAPE, aa 175-189 (not fully specified)
T5 chain: KRNTFVGTPFWMAPE

[6] = target: T6, STLK4 activation loop peptide # 9, RNKVRKTFVGTPCWMAPE, aa 66-83 (not fully specified)
T6 chain: RNKVRKTFVGTPCWMAPE

[7] = target: T7, SULU1 activation loop peptide # 6, PANSFVGTPYWMAPE, aa 174-188 (not fully specified)
T7 chain: PANSFVGTPYWMAPE

[8] = target: T8, ZC1 activation loop peptide # 7, RRNTFIGTPYWMAPE, aa 184-198 (SEQ ID 125) (not fully specified)
T8 chain: RRNTFIGTPYWMAPE

[9] = target: T9, ZC1 activation loop peptide # 8, RRNTFIGTPYWMAPE, aa 184-198 (SEQ ID 126)
T9 chain: RRNTFIGTPYWMAPE

B1: human PAK5 (protein)
chain: MFGKRKKRVEISAPSNFEHRVHTGFDQHEQKFTGLPRQWQSLIEESARRPKPLVDPACITSIQPGAPKTIVRGSKGAKDGALTLLLDEFENMSVTRSNSLRRDSPPPPARARQENGMPEEPATTARGGPGKAGSRGRFAGHSEAGGGSGDRRRAGPEKRPKSSREGSGGPQESSRDKRPLSGPDVGTPQPAGLASGAKLAAGRPFNTYPRADTDHPSRGAQGEPHDVAPNGPSAGGLAIPQSSSSSSRPPTRARGAPSPGVLGPHASEPQLAPPACTPAAPAVPGPPGPRSPQREPQRVSHEQFRAALQLVVDPGDPRSYLDNFIKIGEGSTGIVCIATVRSSGKLVAVKKMDLRKQQRRELLFNEVVIMRDYQHENVVEMYNSYLVGDELWVVMEFLEGGALTDIVTHTRMNEEQIAAVCLAVLQALSVLHAQGVIHRDIKSDSILLTHDGRVKLSDFGFCAQVSKEVPRRKSLVGTPYWMAPELISRLPYGPEVDIWSLGIMVIEMVDGEPPYFNEPPLKAMKMIRDNLPPRLKNLHKVSPSLKGFLDRLLVRDPAQRATAAELLKHPFLAKAGPPASIVPLMRQNRTR
substrate (in vitro kinase assay) [1]: yes | substrate (in vitro kinase assay) [2]: yes | substrate (in vitro kinase assay), note [2]: Equally well as MBB | Km [3]: High Km for PAK5 (1-10 µM) | substrate (in vitro kinase assay) [3]: yes | substrate (in vitro kinase assay) [4]: no | substrate (in vitro kinase assay) [5]: poor | substrate (in vitro kinase assay) [6]: poor | substrate (in vitro kinase assay) [7]: poor | substrate (in vitro kinase assay) [8]: poor | substrate (in vitro kinase assay) [9]: poor | substrate (in vitro kinase assay), note [9]: Better than 7
